Test: soluble fraction after stress (log2 fold change); higher = more stays soluble; pooled small domains, quantitative proteomics
Details: stress: pH 4
Summary of the method: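 Pooled custom libraries of small protein domains were stressed at pH 4 and then measured by high-throughput quantitative proteomics. The fold change in the amount of each domain that stays soluble after the acid stress serves as a measure of aggregation propensity. Fold changes are given on a log2 scale, and higher values mean more of the domain stayed soluble.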

Sequence | soluble fraction (log2)
HMRLLAESIARGLDPEGSGGLWAKEAGAEALKLMETLAAEAPHGGSFTAAAYRDLFESLVHQGEVREA | -0.335
HMRLLGEPLAGRLKKDVPVVTGRSTESKAIAQFFELRWSHLPDPEARTISVASGRIDFMDVGATRFSLR | 0.124
HMRLSDSEFESIENAIKEKLENSALTADVLVKELSFDEDKIWKVIRWLEDAEKISEDEAGTLLWKPR | -0.76
HMRLSESLLDDIPGIGAARKRALLQSFGSVRKLRHADAEEIAAKVPGIGLNFAEKIVEALRKK | 0.187
HMRLTTTPKTARGLTTMNRIIRAAEVEFGRKGYHYTGITDIAQRAKVASGTIYLYFTDKYSLYVHLLT | 0.17
HMRLYTQDVAVLNRDVIQGEVITSDMVTTVNVHKRTVPTGALNLSEIPGNVAKFNIPASIPITASMVTK | -0.171
HMRMLLKELLIQYEVKNDKSHVEVAKEVGVSLSTYYRWLNGESLHLKKRTIDRLSEVLHYDINQVVEES | 0.0267
HMRMLSEGAQRMLRGLAVLEEASADRLLELHQGDYPGFVRSLFALESAGLFQRNGSGTWIRR | -0.996
HMRMNASERQNQIVDLLSQNGVMKIMDIADHFNVSRETIRRDLIILEDDNRIKKWFGGVISAN | -0.219
HMRMQRYYLTDMSEKGREALPGVLDEMGYAGRYTMSDNSIAINSNMIVLSKAIKRAEDIAHNE | -0.148
HMRMRPNERQKRIIELLSFRRHETIGNFANEFGVSRDTIKRDIITLQEEYPIISERGYEGGISLPDGYYI | -0.0594
HMRMSLDEAKAVVLPIGEYKGRNMGEVLAIKPELIDFYASQKFNSSKYPYLKEAAQVILENQ | 0.0219
HMRMSPRERKIYQFIENHPGTKSGEMAEKLGIPLPTIKRLLSDMVASKLLQKHGTGAGTNYSIEE | ≥ 0.43
HMRMSQLSRLISILTLLKSKRLLTATELAEKYDVSIRTVYRDIRKLEEAGIPVYTIEGRGYSLMDNYT | -0.299
HMRNANENTLKDLPVAVPNIHVSNIEEKKDFHLIQLEYSQEFDPREDLFNFAVNSSWVILKMTPT | ≥ 0.43
HMRNDIFDQLTEREMQILQEVAKGYRNKQIADHLFISESTVKVHMKSLLKKLQVPSRTAATVLYLERYG | -0.406
HMRNEFEAHSDGTRIQLNDRSKATFSVYDVQGRLIHSFQDFSGSSFNIEPKNQLLIITRETAEGVSVKKLV | -0.322
HMRNKTVKEVLDYIEKNSEFIFFYYSKAIDTKRIVSLSVKDQPITVILDQLFKNTDVLYEIKDRQISLKRE | -0.508
HMRNTETMKEIQAFVEDYFFEYHQSPSMQKVADAIGTSKSTAYYYVMEMARNGMLHYDGKTIETPHTQKS | 0.285
HMRPDDPYLVIGASREMGDEELKRHYRRLVAETHPDRGIARGLPAEAIAIATRRLAAINAAWDAIERERGL | -0.158
HMRPDSFEAGEAEAGSRLDRLLAARLGIPRNQVQQWIGGGRVTVDAEPVRASLVVRAGMRIAWDPPPPP | 0.0905
HMRPEKLVLKALRGAHGPLSAEEVAGRIEADGGAGLDVARVEHVLGQLERSGTVAALGGGKYLALR | 0.123
HMRPHDDHLREQLLGIATETIARTGVEGLSLRTLATDAGTSTSAVYQLFGSRAALLDAVYLRVLE | -0.733

Sequence | soluble fraction (log2)
HMRPLISQTLRIDRGEGDIAGPLGVLAKEYPHLSMGSYPFQKDGIYGAHVVIRGSDPGMVEAAMDKLKAAF | -0.0188
HMRPLTPLEKLTPDADGKYYHIVQSGETLSWIAKLYETTAEKLQAWNNLFSSDIFPNQKLLLQVTPP | -0.123
HMRPPLEWGTHGEITTRTVASGYVRASARVRLWDGELQRMTATASTASDARASLQHRIAERLRFSEL | -0.0592
HMRPPLRAAIIDHLARDWHTVAELARLLPASGAHVSRLVVELRAVGAVDERISHPDWPGNRPTEYRLRRA | -1.05
HMRPTHYSGPSVIAMINNRVWFSDGSRLAPGEHHDDLEVVGLSPPWSAKVRWQGVEFDVGLFE | -0.946
HMRQGHLDLLRQIHALPPSTREVVYLRAFGGLSFREIGDVLGRTETWARVTFYRGKEALRKG | -0.275
HMRQHHMIISTKLGTPKEELAKLVSGFEDQGLRVSVITGTDYTVIGLVGDTTHLDEKRIRANPYVDNVQRV | 0.0502
HMRQIMIIVLKSTATKEDSLLFKNKLEQEYGVKVNEWTGVESTVLGLIGDTTKIDIDYISAQDIVESVKRV | -0.494
HMRQKTTFFATESFELPNGEKVEEGQIFRLNDGAFNIAEQQGITRFLTSEANYGRMIAANAEVEKAKLDA | -1.05
HMRQLISIYNNTIGADEIDQMRNILSNSGYKEGVDFAVQTADKKSVILVRRDLAGMIQEQLSGEGLPS | -0.18
HMRQNPESFLNHKVKKNESLESLTKKYELTENEIIFYNPLIQKIGLKKRMILKIPIYNNQNLVTKSVD | -0.161
HMRQPRGQRVTVREASSLLPFLFAHLTDRSRSAVKSLLRHGQIWVNGRVTTHFDMPLRPGDTVLISHERG | -0.233
HMRQSQEVSGGERYRRLTAYLDTHPFITRKEYSGITGLLKNKALNDLNLLVNKGYLEAMGRGSHKVYVRPM | 0.321
HMRQSSLRTRELLIDAARQLFARFGVEKTTMNDIAEASKRGRRTVYMYFNSKSDVFYAVVGRE | -0.116
HMRQVFPNPSSSQIKLASSRIGQAFSILDQQGRVVLSGKVSEEAVIALENLAKGIYVLKIGSWSETILK | 0.00122
HMRRATLERLANNTAEKAIRYKRSLALEPMNPQERRIIHAALQEVEGVSTHSVGTEPNRKVIVVPDGV | -0.186
HMRRFEFSDGSSNKFWQITRDGTSLTVTFGKIGTAGQTQLKELATEAAAIAEHDKLVKEKTKKGYAEVG | -0.157
HMRRGFGYVRKLPSGRWQASFVGPDLARHSAPHTFETKGDAEGWLGRRQADVVAGEWRPPVP | 0.321
HMRRISLEDWQLIESLIRRDWSPEQISLWLKKYKKIRVSHEWIYQYILKDKSKAGDLHTHLRSR | -0.419
HMRRKNQVQSSYQKRENGTYTVRFFLSDDMGSIMDLQLMATREDMARALRERFLKDPEKIYGQIMQMLLR | 0.241
HMRRLGTTEIAGILRREISQGILIAKERLPSERSLADTYGVARGTVRQALNLLAREGLVQIRRSSGAYVTF | -0.299
HMRRMAYLVGQRGLAMGDFISGTGQVRIGDTVWRAEAVEGELVRTGDTVVVEGAKMTTAIVRRVM | -0.302
HMRRRKPLVSYEYGTRVYAPSEGEPRYRVVATDADGQRVFAKFSSEEAARHRAREIEGRLATS | 0.0937

Sequence | soluble fraction (log2)
HMRRSSQQLTLTEVSTIKEMVTSEEYRHVPTGTLALLAQRLRKVFASSSTWYRLVRIYKWRRPRGRIH | 0.296
HMRRSVYQANVLDAIKHLVDQNELATTKAIAEYIGDDYQGNVSRAIRELLADRKIKKLPKVGVLQPYEA | 0.127
HMRRVEDVRTALEHFAAARNTTPMAMTLDQRREAMRELAASGLLNLRRALSEVAQTLGVARSTVYTYLP | ≥ 0.43
HMRSAKEYKAIREEIYRFIGAYITKHVYAPSNKEIAEAVGISGTTVHRHLIDMIDEGILETD | -1.29
HMRSFGTLRRLPSGRYQASYAGPDLRRHAAPTTFETKLDAEGWLRDEHRMIERDEWTAPAARSQLK | 0.0606
HMRSFRIGGLVEQGSIARDGQSLTVRFAVTDLAHKIPVTYTGLLPDLFKEGKGVVAEGKLGPDGVFHASQV | -0.705
HMRSPIWKSITATLTAEIAGGQYRAGDKLPTEAELSQRFGVNRHTLRRALAEMAGAGLVVARRGAGVFVQG | -0.289
HMRSPLYVQIKQHILGDIRKGVWKPGEKLPTELDLAERFGVSVGTVRRAMGGLEDEGIISRREGSGTFVRT | 0.229
HMRSSAATMFGRIALKNKLVDEATLKKVMSELPAGADLGAVLVKQGLISEQHAEAIQKKITAHMKSAP | 0.0511
HMRSSALDEIPGIGKQRKKNLLVHFTSVAKIKEASLDEIAAVPGMNRKAALVVVEFFQNQERE | 0.158
HMRSSNEAVSQRRDKILDYISATGRTSTEIVAKEFGVSVMTARRDLLYLMEKRLISKSSSGLFKVDNN | 0.408
HMRTIGDSVYEKIKYDIVHLTLKPGEKLSEASLAEKYGISKAPIRVALRKLQEEGLIVIRPQSGSIVSP | 0.0262
HMRTMRHLSVPRQETQQILSQLKAEFALPQGARVQPDPSDSKRTLIPVKEGAESELLSRYPVVHAEP | 0.11
HMRTNNEITSYKLKSGKKRWKFQTYLGLDDKGQKVSVTRQGFRTYNEAISEYNKLRAQGTQGYQ | ≥ 0.43
HMRTPTGVQAYLSSGLIKGIGEKTAAAIVDKFGTDALSVIETDPERLLEIPGITPNKLREILESYNQH | 0.174
HMRTVAERYGLTAGQWRVLELLTQGKTNRQIAEMLDVTEGTVKIHVSAIFKAMKVTNRTQALLLAKKH | -0.522
HMRTYDPQAVELNNKALELINQGRLDSALLVYDQSIKTDKTYYFPHIGKSIIYMRKKDWNKAFEETQQAIK | 0.0261
HMRVDLATEVHSVLRRMMSRPPTLQEIRADLDGEEPGRVHEALDALRAAFRGGRGPKNPYESLKRSLRRG | -0.126
HMRVDLVQRLARHGLSPRQSAVAGGVLRGLDNGEISRQLYIAEQTVKDHLHEIYHRLGVHTRTELLIKVLG | -0.359
HMRVGISRNSGAAGIAVWLTQKLGRPVAKTEEIVHILKNWVDDQYEAGRVTNIGDGELWSVYKQMEAEE | 0.0584
HMRVTEIDYGAFMKMIEEKNIGEVKVEDYEIVFTDKDNKNIYKTGIMDDPDLTQRLYNSGAVFA | -1.22
HMRWGDPLTVKVPSFIGQTKDDIAKQHYPFRIEWHGEGAKIGSQLPEVDSVIKQDGTIHLYLV | -0.0995
HMRYFDDEELNNKFLEFLSMRKKIRKPVRTDRALKALLKKLHELSGGDVGLMKQIIDQSLDKEWLGLFEL | -0.6

Reference: the domain aggregation screens of Martell et al. (2025)
